In series [1] the test system is HeLa Kyoto. Nature of the series: solubility change mitosis vs G1/S (difference of NP-40 vs SDS log2 ratios) (log2 ratio difference); higher = more soluble in mitosis.
Series [2] deals with HeLa Kyoto. Nature of the series: solubility in G1/S (NP-40 vs SDS abundance) (log2 ratio); higher = more soluble. To be noted: cell cycle stage: G1/S.
Series [3] relates to HeLa Kyoto. Put plainly: melting temperature (median over replicates), in situ; higher = more thermally stable.
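Throughout, for melting temperature (median over replicates), in situ: HeLa Kyoto cells synchronized by double thymidine or nocodazole block, proteins quantified by TMT10plex mass spectrometry, three independent biological replicates.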
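Throughout, for solubility change mitosis vs G1/S (difference of NP-40 vs SDS log2 ratios): synchronized HeLa Kyoto cells (double thymidine block for G1/S, nocodazole release for mitosis), protein amounts in NP-40 versus SDS lysates quantified by mass spectrometry, three biological replicates.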
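Throughout, for solubility in G1/S (NP-40 vs SDS abundance): HeLa Kyoto cells arrested at G1/S by double thymidine block, proteins quantified by TMT10plex mass spectrometry in mild NP-40 versus SDS extracts, three biological replicates.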

For the sequence “MASRGKTETSKLKQNLEEQLDRLMQQLQDLEECREELDTDEYEETKKETLEQLSEFNDSLKKIMSGNMTLVDELSGMQLAIQAAISQAFKTPEVIRLFAKKQPGQLRTRLAEMDRDLMVGKLERDLYTQQKVEILTALRKLGEKLTADDEAFLSANAGAILSQFEKVSTDLGSGDKILALASFEVEKTKK [LZIC]”, the “solubility change mitosis (log2)” value in the series with HeLa Kyoto [1] was determined as 0.544. For the same sequence, in the series with HeLa Kyoto [2], the “solubility in G1/S (log2)” value was determined as 0.367. Moreover, the melting temperature in the series with HeLa Kyoto [3] (cell cycle stage: G1/S) amounted to 54.1 °C; with HeLa Kyoto [3] (cell cycle stage: mitosis), 53.2 °C.

On to “MATGDLKRSLRNLEQVLRLLNYPEEVDCVGLIKGDPAASLPIISYSFTSYSPYVTELIMESNVELIAKNDLRFIDAVYKLLRDQFNYKPILTKKQFIQCGFAEWKIQIVCDILNCVMKKHKELSSLQKIPSQQRKKISSGKSEPPLGNEKISAEAVGVDISGRFMTSGKKKAVVIRHLYNEDNVDISEDTLSPITDVNEAVDVSDLNATEIKMPEVKVPEIKAEQQDVNVNPEITALQTMLAECQENLKKLTSIEKRLDCLEQKMKGKVMVDENTWTNLLSRVTLLETEMLLSKKNDEFIEFNEVSEDYASCSDMDLLNPHRKSEVERPASIPLSSGYSTASSDSTPRASTVNYCGLNEISEETTIQKMERMKKMFEETAELLKCPNHYL [CEP44]”, for which, in the series with HeLa Kyoto [1], the “solubility change mitosis (log2)” value was -0.26. Moreover, the “solubility in G1/S (log2)” value in the series on HeLa Kyoto [2] was 0.259. Moreover, the melting temperature in the series with HeLa Kyoto [3] (cell cycle stage: G1/S) was 48.6 °C; in the series with HeLa Kyoto [3] (cell cycle stage: mitosis), 49.3 °C.

Regarding “MATKDPTAVERANLLNMAKLSIKGLIESALSFGRTLDSDYPPLQQFFVVMEHCLKHGLKVRKSFLSYNKTIWGPLELVEKLYPEAEEIGASVRDLPGLKTPLGRARAWLRLALMQKKMADYLRCLIIQRDLLSEFYEYHALMMEEEGAVIVGLLVGLNVIDANLCVKGEDLDSQVGVIDFSMYLKNEEDIGNKERNVQIAAILDQKNYVEELNRQLNSTVSSLHSRVDSLEKSNTKLIEELAIAKNNIIKLQEENHQLRSENKLILMKTQQHLEVTKVDVETELQTYKHSRQGLDEMYNEARRQLRDESQLRQDVENELAVQVSMKHEIELAMKLLEKDIHEKQDTLIGLRQQLEEVKAINIEMYQKLQGSEDGLKEKNEIIARLEEKTNKITAAMRQLEQRLQQAEKAQMEAEDEDEKYLQECLSKSDSLQKQISQKEKQLVQLETDLKIEKEWRQTLQEDLQKEKDALSHLRNETQQIISLKKEFLNLQDENQQLKKIYHEQEQALQELGNKLSESKLKIEDIKEANKALQGLVWLKDKEATHCKLCEKEFSLSKRKHHCRNCGEIFCNACSDNELPLPSSPKPVRVCDSCHALLIQRCSSNLP [RUFY2]”, in the series on HeLa Kyoto [1], the “solubility change mitosis (log2)” value is -0.122. Further, the “solubility in G1/S (log2)” value in the series with HeLa Kyoto [2] is -0.00835. The melting temperature came out at 49.1 °C in the series with HeLa Kyoto [3] (cell cycle stage: G1/S) and 49.3 °C in the series on HeLa Kyoto [3] (cell cycle stage: mitosis).

As to “MATLSFVFLLLGAVSWPPASASGQEFWPGQSAADILSGAASRRRYLLYDVNPPEGFNLRRDVYIRIASLLKTLLKTEEWVLVLPPWGRLYHWQSPDIHQVRIPWSEFFDLPSLNKNIPVIEYEQFIAESGGPFIDQVYVLQSYAEGWKEGTWEEKVDERPCIDQLLYSQDKHEYYRGWFWGYEETRGLNVSCLSVQGSASIVAPLLLRNTSARSVMLDRAENLLHDHYGGKEYWDTRRSMVFARHLREVGDEFRSRHLNSTDDADRIPFQEDWMKMKVKLGSALGGPYLGVHLRRKDFIWGHRQDVPSLEGAVRKIRSLMKTHRLDKVFVATDAVRKEYEELKKLLPEMVRFEPTWEELELYKDGGVAIIDQWICAHARFFIGTSVSTFSFRIHEEREILGLDPKTTYNRFCGDQEKACEQPTHWKITY [POFUT2]”, the “solubility change mitosis (log2)” value in the series on HeLa Kyoto [1] is -0.151. The “solubility in G1/S (log2)” value with HeLa Kyoto [2] came to 0.154. The sequence also registered a melting temperature with HeLa Kyoto [3] (cell cycle stage: mitosis) of 53.8 °C.

Regarding “MDPGKDKEGVPQPSGPPARKKFVIPLDEDEVPPGVAKPLFRSTQSLPTVDTSAQAAPQTYAEYAISQPLEGAGATCPTGSEPLAGETPNQALKPGAKSNSIIVSPRQRGNPVLKFVRNVPWEFGDVIPDYVLGQSTCALFLSLRYHNLHPDYIHGRLQSLGKNFALRVLLVQVDVKDPQQALKELAKMCILADCTLILAWSPEEAGRYLETYKAYEQKPADLLMEKLEQDFVSRVTECLTTVKSVNKTDSQTLLTTFGSLEQLIAASREDLALCPGLGPQKARRLFDVLHEPFLKVP [ERCC1]”, the “solubility change mitosis (log2)” value with HeLa Kyoto [1] is 0.0087. For the same sequence, the “solubility in G1/S (log2)” value with HeLa Kyoto [2] amounted to 0.296. In addition, the melting temperature in the series with HeLa Kyoto [3] (cell cycle stage: mitosis) is 51 °C.

For the sequence “MDTSSVGGLELTDQTPVLLGSTAMATSLTNVGNSFSGPANPLVSRSNKFQNSSVEDDDDVVFIEPVQPPPPSVPVVADQRTITFTSSKNEELQGNDSKITPSSKELASQKGSVSETIVIDDEEDMETNQGQEKNSSNFIERRPPETKNRTNDVDFSTSSFSRSKVNAGMGNSGITTEPDSEIQIANVTTLETGVSSVNDGQLENTDGRDMNLMITHVTSLQNTNLGDVSNGLQSSNFGVNIQTYTPSLTSQTKTGVGPFNPGRMNVAGDVFQNGESATHHNPDSWISQSASFPRNQKQPGVDSLSPVASLPKQIFQPSVQQQPTKPVKVTCANCKKPLQKGQTAYQRKGSAHLFCSTTCLSSFSHKPAPKKLCVMCKKDITTMKGTIVAQVDSSESFQEFCSTSCLSLYEDKQNPTKGALNKSRCTICGKLTEIRHEVSFKNMTHKLCSDHCFNRYRMANGLIMNCCEQCGEYLPSKGAGNNVLVIDGQQKRFCCQSCVSEYKQVGSHPSFLKEVRDHMQDSFLMQPEKYGKLTTCTGCRTQCRFFDMTQCIGPNGYMEPYCSTACMNSHKTKYAKSQSLGIICHFCKRNSLPQYQATMPDGKLYNFCNSSCVAKFQALSMQSSPNGQFVAPSDIQLKCNYCKNSFCSKPEILEWENKVHQFCSKTCSDDYKKLHCIVTYCEYCQEEKTLHETVNFSGVKRPFCSEGCKLLYKQDFARRLGLRCVTCNYCSQLCKKGATKELDGVVRDFCSEDCCKKFQDWYYKAARCDCCKSQGTLKERVQWRGEMKHFCDQHCLLRFYCQQNEPNMTTQKGPENLHYDQGCQTSRTKMTGSAPPPSPTPNKEMKNKAVLCKPLTMTKATYCKPHMQTKSCQTDDTWRTEYVPVPIPVPVYIPVPMHMYSQNIPVPTTVPVPVPVPVFLPAPLDSSEKIPAAIEELKSKVSSDALDTELLTMTDMMSEDEGKTETTNINSVIIETDIIGSDLLKNSDPETQSSMPDVPYEPDLDIEIDFPRAAEELDMENEFLLPPVFGEEYEEQPRPRSKKKGAKRKAVSGYQSHDDSSDNSECSFPFKYTYGVNAWKHWVKTRQLDEDLLVLDELKSSKSVKLKEDLLSHTTAELNYGLAHFVNEIRRPNGENYAPDSIYYLCLGIQEYLCGSNRKDNIFIDPGYQTFEQELNKILRSWQPSILPDGSIFSRVEEDYLWRIKQLGSHSPVALLNTLFYFNTKYFGLKTVEQHLRLSFGTVFRHWKKNPLTMENKACLRYQVSSLCGTDNEDKITTGKRKHEDDEPVFEQIENTANPSRCPVKMFECYLSKSPQNLNQRMDVFYLQPECSSSTDSPVWYTSTSLDRNTLENMLVRVLLVKDIYDKDNYELDEDTD [ZMYM2]”, in the series with HeLa Kyoto [1], the “solubility change mitosis (log2)” value is 0.00298. Moreover, in the series on HeLa Kyoto [2], the “solubility in G1/S (log2)” value was -0.229. Further, the melting temperature with HeLa Kyoto [3] (cell cycle stage: G1/S) turned out to be 49.3 °C; in the series with HeLa Kyoto [3] (cell cycle stage: mitosis), 49.7 °C.

The values are drawn from the supplement of paper PMC5998384.
